Results reported in the DeepSol protein solubility set.

Experiment: soluble on expression in E. coli; label from the status in PepcDB or PDB records

Sequence | soluble on expression in E. coli
MSNHQVALQFEDGVTRFICIAQGETLSDAAYRQQINIPMDCREGECGTCRAFCESGNYDMPEDNYIEDALTPEEAQQGYVLACQCRPTSDAVFQIQASSEVCKTKIHHFEGTLARVENLSDSTITFDIQLDDGQPDIHFLAGQYVNVTLPGTTETRSYSFSSQPGNRLTGFVVRNVPQGKMSEYLSVQAKAGDKMSFTGPFGSFYLRDVKRPVLMLAGGTGIAPFLSMLQVLEQKGSEHPVRLVFGVTQDCDLVALEQLDALQQKLPWFEYRTVVAHAESQHERKGYVTGHIEYDWLNGGEVDVYLCGPVPMVEAVRSWLDTQGIQPANFLFEKFSAN | soluble
MSNPLFPTESAALTLDGPVGPLDVAVDLPEPDVAVQPVTAIVCHPLSTEGGSMHNKVVTMAARALRELGITVVRFNFRSVGTSAGSFDHGDGEQDDLRAVAEWVRAQRPTDTLWLAGFSFGAYVSLRAAAALEPQVLISIAPPAGRWDFSDVQPPAQWLVIQGDADEIVDPQAVYDWLETLEQQPTLVRMPDTSHFFHRKLIDLRGALQHGVRRWLPATP | soluble
MSNPQPEKVRVVVGDDHPLFREGVVRALSLSGSVNVVGEADDGAAALELIKAHLPDVALLDYRMPGMDGAQVAAAVRSYELPTRVLLISAHDEPAIVYQALQQGAAGFLLKDSTRTEIVKAVLDCAKGRDVVAPSLVGGLAGEIRQRAAPVAPVLSAREREVLNRIACGQSIPAIAAELYVAPSTVKTHVQRLYEKLGVSDRAAAVAEAMRQRLLD | soluble
MSNQLAVSDVPTAAWTSQQPRSPRMFDQENGFSQNFQPFMQQNKTVNPCTISDDVREEMMRLRRRENAFKTALCKTFQLTKACSYGEQCKFAHSVEELQLKHQNLGINNPKYKTVLCDNFSTTGHCKYGTKCQFIHRTVEPASLKIQNPLVPRFPSWFAPPSSLAREFLCLNHFEASTSSSTTQKLTSSNLSTSTFRYY | not soluble
MSNSAKLIDVITKVALPIGIIASGIQYSMYDVKGGSRGVIFDRINGVKQQVVGEGTHFLVPWLQKAIIYDVRTKPKSIATNTGTKDLQMVSLTLRVLHRPEVLQLPAIYQNLGLDYDERVLPSIGNEVLKSIVAQFDAAELITQREIISQKIRKELSTRANEFGIKLEDVSITHMTFGPEFTKAVEQKQIAQQDAERAKFLVEKAEQERQASVIRAEGEAESAEFISKALAKVGDGLLLIRRLEASKDIAQTLANSSNVVYLPSQHSGGGNSESSGSPNSLLLNIGR | not soluble
MSNSITVRARGVNGQESVSLQVGGTTVQTWTLTTAMQDYTASTSLTGEIRVAFTNDATGRDVQVDYIVVNGQTRQAENQSVNTGVWANNQCGGSGNSEWLHCNGYISFGNVS | soluble
MSNTVLVSGASGFIALHILSQLLKQDYKVIGTVRSHEKEAKLLRQFQHNPNLTLEIVPDISHPNAFDKVLQKRGREIRYVLHTASPFHYDTTEYEKDLLIPALEGTKNILNSIKKYAADTVERVVVTSSCTAIITLAKMDDPSVVFTEESWNEATWESCQIDGINAYFASKKFAEKAAWEFTKENEDHIKFKLTTVNPSLLFGPQLFDEDVHGHLNTSCEMINGLIHTPVNASVPDFHSIFIDVRDVALAHLYAFQKENTAGKRLVVTNGKFGNQDILDILNEDFPQLRGLIPLGKPGTGDQVIDRGSTTDNSATRKILGFEFRSLHESVHDTAAQILKKENRL | not soluble
MSNYAKEERLTGGNVSSVYRSENTVRRELKPGSEKTHKLLQHLENKGFHYAPKFLGVDEKDREILSFIEGEAGNYPLKEYMRSNDVLKEIAKMLRLYHDAVSDFPLLNDWKPMDHTPNNIEVLCHNDFAIYNIIFNNEKPVGIIDFDVAAPGPRLWDIAYTLYTCVPLSRVYYTESGEAVHYDSPQHADRIKERVKLFVQSYGKNMDEDYLGMVLLRLEGLCTYMKRKAQEGDLNFQRMIDEGHLEHYEKDIKFIRDHRAEWS | not soluble
MSPIPTTAETRKINEAAELMVNFWMSFACVEKEKEQMASIFEKMNGLFAAPSTTSTASLFGKYEGLFETTEVATEDFNTLWWNYPAQPSFPQLPVFVRSPIDSIKIYGAIQHDFGMSEDESVQYPSPISPSSDSSSETITHVSPGYLLQEVFLQRAVIEEQKKIIDGFHEIQKLNKKLAALHNNFTY | not soluble
MSPKARWQFWIDRGGTFTDIVARSPDGKLITHKLLSEDPAHYEDAAMHGIRQILGLSENEPFPSEDVEAIKMGTTVGTNALLERKGERIVLVITKGFGDALRIGYQNRPDIFSQKIELPDQLYERVIEVSGRYSADGEEIVPLELESAKKELEEAYKAGIRSAAVILMHSYRYPEHELMLGRLATEIG | not soluble
MSPLSGSLAPLNMKGLVKFQDVSFAYPNHPNVQVLQGLTFTLYPGKVTALVGPNGSGKSTVAALLQNLYQPTGGKVLLDGEPLVQYDHHYLHTQVAAVGQEPLLFGRSFRENIAYGLTRTPTMEEITAVAMESGAHDFISGFPQGYDTEVGETGNQLSGGQRQAVALARALIRKPRLLILDQATSALDAGNQLRVQRLLYESPEWASRTVLLITHQLSLAERAHHILFLKEGSVCEQGTHLQLMERGGCYRSMVEALAAPSDAAAHHHHHH | soluble
MSPLTQFKFFLWFFSHFKVALIGYLKPKLIQLTDNEIVVRLPLTRRSRNHLHSMYFGALAVGADIAGGLHGFYHAKQAKCKVSLAFKSFQAQFLRRPESDVYFICTEGDVVKKMIEESKKSGERINKPIHIKAYINYLTHPEEIADFILELSLKVIKLEHHHHHH | soluble
MSPMRIGLVCIRGSVPAFENFGFLPTDIVGSNGLVNGSRAHRVLDGIIIPGGSIVESGSLSPELAFEIRRMASDGKFVLGICSGFQALAERTDIGRKSPCPVYREGLGLLNVTFHPMISNDRVEATITGESFLTSGMSGERITGFHCHTYGEIRGDAPEIMKSRIVRADYHERPGEILSGVCSDDGNVAGTMVHGCLDENQTLVSNILKFLDADETARERILEANRKLREALRSELGISTGIRVMDRGGTRGTPPAIMIASTGSDSGKTFILTGLAGALRRRGLRVGVIKVGPDVRDIVPALYLIKEPMEEHSSIRIGRLGWMELRDVLESVRGRYDIILIEGVMSILTGLLNDITPYSGAEIALAAGIPLIMVAGCSKGGIESAVVDLDAHISVLEGLGLEVSCGILNRVYDMDIFERASGGRYLAIPRVEMSERGGTPEVEIKLEDFCLKAMETVEEHLDVDTLISFAKKPEFRGYMGPEEIKKVFSPLEHHHHHH | not soluble
MSPNHVDHLVLPVAQIDIATARLANLGFTVAPLAVHPFGTANACVFLADGTYLEPLAVNDPAKYGESANRGDVFTGRDRAFRESCGPEGFSALVARSGDAFVDHERFVAAGLSAGDLFEFSRPVQMPDGSRSEAAFRLAFAASGAAADFFLFGCQRLKALPGDRTELERHANAVTGLFEIVLFSGGDAKAARLIETVFGCKSAMSPGGDMVFATGNARIRLTEKPAVADLDLNTSNRGDGGLRGAGIVFSVTDLAVTAAVLAANGVSSMEAGGRLVVPAAPGQGVAFAFEEI | not soluble
MSPVAAMKRKNGVALWRQIADRIRGEIAAGDHDETGMLPPEMTLAEKFGVNRHTVRSAIAALASEGILEPMQGRGTMIARKERLSFPISLRTRFTAGIGDQVKEMEALLLSHTTEPASADLAARLQLPSGAPLVRLETLRKADTRPVSRSTTWFPADRFAGIGEAYRKSGSITAAFKALGVADYVRISTVISAIHADTQDLADLELSPGAILLVTQALNADMDGVPVQYAVSRFSADTVEFTVEN | not soluble
MSQANLSETLFKPRFKHPETSTLVRRFSAGKPQAMQSALSGNHVDHWYRLINRLMWIWRGVTPQEILDVQARIVMSEAERTDPELFDTVIGYRGGNWIFEWAKEAMQWQQKAGQEADPLLSGRHWLHASNLYSIAAYPHIKGDELAEQAQALANRAYEEAAQRLPGSLRELEFTIPGGSPITGFLHMPKGEGPFPTVLMCGGLDSLQTDYYNLYENYFSPLGIAMLTIDMPSIGFSSKWTLNQDTSLLHQHALRHLENVPWIDHTRVAAFGFRFGANIAVRLGYLEPQRLKAVACLGPVVHGLLVDPLHQGRVPEMYLDVLASRLGMHDASDEALRVELNRYSLKTQGLLGRRCPTPMLSGFWKDDPFSPEEESRLITSSSADGKLLEIPFNPVYRNFDHALRQIARWINHRFG | not soluble
